Experimental data from the supplement of paper PMC5998384.

What was measured:
HeLa Kyoto [1] = assay: solubility in G1/S (NP-40 vs SDS abundance) (log2 ratio); higher = more soluble; settings: cell cycle stage: G1/S
HeLa Kyoto [2] = assay: melting temperature (median over replicates), in situ; higher = more thermally stable
HeLa Kyoto [3] = assay: solubility change mitosis vs G1/S (difference of NP-40 vs SDS log2 ratios) (log2 ratio difference); higher = more soluble in mitosis
HeLa Kyoto [4] = assay: thermal stability score vs G1/S (z-score of summed log2 fold changes over temperatures); higher = more thermally stable than in G1/S
[5] = cell cycle stage: early G1 (4.5 h after nocodazole release)
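Wherever melting temperature (median over replicates), in situ is given: HeLa Kyoto cells synchronized by double thymidine or nocodazole block, proteins quantified by TMT10plex mass spectrometry, three independent biological replicates.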
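Wherever solubility change mitosis vs G1/S (difference of NP-40 vs SDS log2 ratios) is given: synchronized HeLa Kyoto cells (double thymidine block for G1/S, nocodazole release for mitosis), protein amounts in NP-40 versus SDS lysates quantified by mass spectrometry, three biological replicates.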
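Wherever solubility in G1/S (NP-40 vs SDS abundance) is given: HeLa Kyoto cells arrested at G1/S by double thymidine block, proteins quantified by TMT10plex mass spectrometry in mild NP-40 versus SDS extracts, three biological replicates.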
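Wherever thermal stability score vs G1/S (z-score of summed log2 fold changes over temperatures) is given: synchronized HeLa Kyoto cells, proteins quantified by TMT10plex mass spectrometry, three biological replicates, mitosis taken 0.5 h after nocodazole release, G1/S directly after double thymidine block.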

Chain of NCOA3 (chain, as listed by the source): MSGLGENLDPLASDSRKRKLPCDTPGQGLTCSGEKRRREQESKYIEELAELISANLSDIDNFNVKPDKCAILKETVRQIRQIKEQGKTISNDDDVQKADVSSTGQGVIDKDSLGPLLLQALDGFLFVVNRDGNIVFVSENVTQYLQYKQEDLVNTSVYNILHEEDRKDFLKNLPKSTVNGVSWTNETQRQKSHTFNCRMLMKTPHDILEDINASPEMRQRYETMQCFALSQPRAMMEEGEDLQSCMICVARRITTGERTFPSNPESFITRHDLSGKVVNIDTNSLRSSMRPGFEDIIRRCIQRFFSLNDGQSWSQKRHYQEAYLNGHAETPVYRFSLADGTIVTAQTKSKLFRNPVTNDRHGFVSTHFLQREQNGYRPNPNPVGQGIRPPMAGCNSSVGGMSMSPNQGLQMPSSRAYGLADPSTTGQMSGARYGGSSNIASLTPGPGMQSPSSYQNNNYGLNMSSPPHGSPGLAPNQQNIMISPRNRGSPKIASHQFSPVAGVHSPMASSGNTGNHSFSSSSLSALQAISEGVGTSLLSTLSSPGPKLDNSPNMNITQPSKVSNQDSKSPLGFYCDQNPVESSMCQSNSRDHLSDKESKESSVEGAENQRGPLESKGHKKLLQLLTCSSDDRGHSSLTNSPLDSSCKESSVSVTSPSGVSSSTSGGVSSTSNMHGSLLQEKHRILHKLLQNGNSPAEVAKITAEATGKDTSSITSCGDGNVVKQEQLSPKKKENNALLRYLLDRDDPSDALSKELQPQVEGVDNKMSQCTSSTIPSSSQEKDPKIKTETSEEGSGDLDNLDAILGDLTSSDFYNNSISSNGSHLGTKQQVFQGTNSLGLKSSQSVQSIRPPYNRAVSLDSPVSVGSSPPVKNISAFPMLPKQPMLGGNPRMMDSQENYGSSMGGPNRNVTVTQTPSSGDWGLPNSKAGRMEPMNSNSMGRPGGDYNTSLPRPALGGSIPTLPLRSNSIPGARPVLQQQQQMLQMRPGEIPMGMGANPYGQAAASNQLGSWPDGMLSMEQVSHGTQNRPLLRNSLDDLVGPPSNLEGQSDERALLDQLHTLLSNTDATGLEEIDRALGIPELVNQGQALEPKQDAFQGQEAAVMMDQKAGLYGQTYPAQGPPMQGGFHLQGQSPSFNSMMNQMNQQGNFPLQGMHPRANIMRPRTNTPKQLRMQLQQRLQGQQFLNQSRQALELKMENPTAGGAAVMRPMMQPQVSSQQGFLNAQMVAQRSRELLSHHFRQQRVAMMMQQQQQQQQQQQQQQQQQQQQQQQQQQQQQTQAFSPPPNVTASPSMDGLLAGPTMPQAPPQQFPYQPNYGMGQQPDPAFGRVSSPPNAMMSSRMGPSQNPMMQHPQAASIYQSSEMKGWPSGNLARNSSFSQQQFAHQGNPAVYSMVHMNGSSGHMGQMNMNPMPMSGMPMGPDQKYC
Chain of EMC10 (chain, as listed by the source): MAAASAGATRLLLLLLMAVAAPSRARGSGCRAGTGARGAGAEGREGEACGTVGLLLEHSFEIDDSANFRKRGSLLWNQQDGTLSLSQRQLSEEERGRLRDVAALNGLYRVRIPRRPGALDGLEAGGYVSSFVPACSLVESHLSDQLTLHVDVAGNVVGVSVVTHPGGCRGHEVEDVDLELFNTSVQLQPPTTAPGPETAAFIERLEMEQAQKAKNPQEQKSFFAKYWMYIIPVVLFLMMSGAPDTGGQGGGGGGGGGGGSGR

Substance | solubility in G1/S (log2) (HeLa Kyoto [1]) | melting temperature (HeLa Kyoto [2]; cell cycle stage: G1/S) [°C] | melting temperature (HeLa Kyoto [2]; cell cycle stage: mitosis) [°C] | solubility change mitosis (log2) (HeLa Kyoto [3]) | thermal stability score (HeLa Kyoto [4]; [5]) | thermal stability score (HeLa Kyoto [4]; cell cycle stage: mitosis)
MYRALRLLARSRPLVRAPAAALASAPGLGGAAVPSFWPPNAARMASQNSFRIEYDTFGELKVPNDKYYGAQTVRSTMNFKIGGVTERMPTPVIKAFGILKRAAAEVNQDYGLDPKIANAIMKAADEVAEGKLNDHFPLVVWQTGSGTQTNMNVNEVISNRAIEMLGGELGSKIPVHPNDHVNKSQSSNDTFPTAMHIAAAIEVHEVLLPGLQKLHDALDAKSKEFAQIIKIGRTHTQDAVPLTLGQEFSGYVQQVKYAMTRIKAAMPRIYELAAGGTAVGTGLNTRIGFAEKVAAKVAALTGLPFVTAPNKFEALAAHDALVELSGAMNTTACSLMKIANDIRFLGSGPRSGLGELILPENEPGSSIMPGKVNPTQCEAMTMVAAQVMGNHVAVTVGGSNGHFELNVFKPMMIKNVLHSARLLGDASVSFTENCVVGIQANTERINKLMNESLMLVTALNPHIGYDKAAKIAKTAHKNGSTLKETAIELGYLTAEQFDEWVKPKDMLGPK [FH] | 0.478 | 53.5 | 53.4 | 0.0382 | 1.14 | -0.915
MGCSAKARWAAGALGVAGLLCAVLGAVMIVMVPSLIKQQVLKNVRIDPSSLSFNMWKEIPIPFYLSVYFFDVMNPSEILKGEKPQVRERGPYVYREFRHKSNITFNNNDTVSFLEYRTFQFQPSKSHGSESDYIVMPNILVLGAAVMMENKPMTLKLIMTLAFTTLGERAFMNRTVGEIMWGYKDPLVNLINKYFPGMFPFKDKFGLFAELNNSDSGLFTVFTGVQNISRIHLVDKWNGLSKVDFWHSDQCNMINGTSGQMWPPFMTPESSLEFYSPEACRSMKLMYKESGVFEGIPTYRFVAPKTLFANGSIYPPNEGFCPCLESGIQNVSTCRFSAPLFLSHPHFLNADPVLAEAVTGLHPNQEAHSLFLDIHPVTGIPMNCSVKLQLSLYMKSVAGIGQTGKIEPVVLPLLWFAESGAMEGETLHTFYTQLVLMPKVMHYAQYVLLALGCVLLLVPVICQIRSQVGAGQRAARADSHSLACWGKGASDRTLWPTAAWSPPPAAVLRLCRSGSGHCWGLRSTLASFACRVATTLPVLEGLGPSLGGGTGS [SCARB1] | 0.27 | 56.6 | 63.1 | -0.0198 | -1.41 | -1.54
MSSSPWEPATLRRVFVVGVGMTKFVKPGAENSRDYPDLAEEAGKKALADAQIPYSAVDQACVGYVFGDSTCGQRAIYHSLGMTGIPIINVNNNCATGSTALFMARQLIQGGVAECVLALGFEKMSKGSLGIKFSDRTIPTDKHVDLLINKYGLSAHPVAPQMFGYAGKEHMEKYGTKIEHFAKIGWKNHKHSVNNPYSQFQDEYSLDEVMASKEVFDFLTILQCCPTSDGAAAAILASEAFVQKYGLQSKAVEILAQEMMTDLPSSFEEKSIIKMVGFDMSKEAARKCYEKSGLTPNDIDVIELHDCFSTNELLTYEALGLCPEGQGATLVDRGDNTYGGKWVINPSGGLISKGHPLGATGLAQCAELCWQLRGEAGKRQVPGAKVALQHNLGIGGAVVVTLYKMGFPEAASSFRTHQIEAVPTSSASDGFKANLVFKEIEKKLEEEGEQFVKKIGGIFAFKVKDGPGGKEATWVVDVKNGKGSVLPNSDKKADCTITMADSDFLALMTGKMNPQSAFFQGKLKITGNMGLAMKLQNLQLQPGNAKL [SCP2] | 0.587 | 54.5 | 54.4 | 0.135 | -1.44 | -2.06
MGSRDHLFKVLVVGDAAVGKTSLVQRYSQDSFSKHYKSTVGVDFALKVLQWSDYEIVRLQLWDIAGQERFTSMTRLYYRDASACVIMFDVTNATTFSNSQRWKQDLDSKLTLPNGEPVPCLLLANKCDLSPWAVSRDQIDRFSKENGFTGWTETSVKENKNINEAMRVLIEKMMRNSTEDIMSLSTQGDYINLQTKSSSWSCC [RAB29] | 0.0397 | 53 | 52.9 | -0.119 | -0.342 | -0.372
MAAAGQLCLLYLSAGLLSRLGAAFNLDTREDNVIRKYGDPGSLFGFSLAMHWQLQPEDKRLLLVGAPRAEALPLQRANRTGGLYSCDITARGPCTRIEFDNDADPTSESKEDQWMGVTVQSQGPGGKVVTCAHRYEKRQHVNTKQESRDIFGRCYVLSQNLRIEDDMDGGDWSFCDGRLRGHEKFGSCQQGVAATFTKDFHYIVFGAPGTYNWKGIVRVEQKNNTFFDMNIFEDGPYEVGGETEHDESLVPVPANSYLGLLFLTSVSYTDPDQFVYKTRPPREQPDTFPDVMMNSYLGFSLDSGKGIVSKDEITFVSGAPRANHSGAVVLLKRDMKSAHLLPEHIFDGEGLASSFGYDVAVVDLNKDGWQDIVIGAPQYFDRDGEVGGAVYVYMNQQGRWNNVKPIRLNGTKDSMFGIAVKNIGDINQDGYPDIAVGAPYDDLGKVFIYHGSANGINTKPTQVLKGISPYFGYSIAGNMDLDRNSYPDVAVGSLSDSVTIFRSRPVINIQKTITVTPNRIDLRQKTACGAPSGICLQVKSCFEYTANPAGYNPSISIVGTLEAEKERRKSGLSSRVQFRNQGSEPKYTQELTLKRQKQKVCMEETLWLQDNIRDKLRPIPITASVEIQEPSSRRRVNSLPEVLPILNSDEPKTAHIDVHFLKEGCGDDNVCNSNLKLEYKFCTREGNQDKFSYLPIQKGVPELVLKDQKDIALEITVTNSPSNPRNPTKDGDDAHEAKLIATFPDTLTYSAYRELRAFPEKQLSCVANQNGSQADCELGNPFKRNSNVTFYLVLSTTEVTFDTPDLDINLKLETTSNQDNLAPITAKAKVVIELLLSVSGVAKPSQVYFGGTVVGEQAMKSEDEVGSLIEYEFRVINLGKPLTNLGTATLNIQWPKEISNGKWLLYLVKVESKGLEKVTCEPQKEINSLNLTESHNSRKKREITEKQIDDNRKFSLFAERKYQTLNCSVNVNCVNIRCPLRGLDSKASLILRSRLWNSTFLEEYSKLNYLDILMRAFIDVTAAAENIRLPNAGTQVRVTVFPSKTVAQYSGVPWWIILVAILAGILMLALLVFILWKCGFFKRSRYDDSVPRYHAVRIRKEEREIKDEKYIDNLEKKQWITKWNENESYS [ITGA6] | 0.154 | 55.4 | 55.6 | -0.116 | -2.3 | -1.75
MNPDLRRERDSASFNPELLTHILDGSPEKTRRRREIENMILNDPDFQHEDLNFLTRSQRYEVAVRKSAIMVKKMREFGIADPDEIMWFKKLHLVNFVEPVGLNYSMFIPTLLNQGTTAQKEKWLLSSKGLQIIGTYAQTEMGHGTHLRGLETTATYDPETQEFILNSPTVTSIKWWPGGLGKTSNHAIVLAQLITKGKCYGLHAFIVPIREIGTHKPLPGITVGDIGPKFGYDEIDNGYLKMDNHRIPRENMLMKYAQVKPDGTYVKPLSNKLTYGTMVFVRSFLVGEAARALSKACTIAIRYSAVRHQSEIKPGEPEPQILDFQTQQYKLFPLLATAYAFQFVGAYMKETYHRINEGIGQGDLSELPELHALTAGLKAFTSWTANTGIEACRMACGGHGYSHCSGLPNIYVNFTPSCTFEGENTVMMLQTARFLMKSYDQVHSGKLVCGMVSYLNDLPSQRIQPQQVAVWPTMVDINSPESLTEAYKLRAARLVEIAAKNLQKEVIHRKSKEVAWNLTSVDLVRASEAHCHYVVVKLFSEKLLKIQDKAIQAVLRSLCLLYSLYGISQNAGDFLQGSIMTEPQITQVNQRVKELLTLIRSDAVALVDAFDFQDVTLGSVLGRYDGNVYENLFEWAKNSPLNKAEVHESYKHLKSLQSKL [ACOX1] | 0.331 | 55.9 | 58.3 | -0.212 | -1.6 | -3.2
MPKAKGKTRRQKFGYSVNRKRLNRNARRKAAPRIECSHIRHAWDHAKSVRQNLAEMGLAVDPNRAVPLRKRKVKAMEVDIEERPKELVRKPYVLNDLEAEASLPEKKGNTLSRDLIDYVRYMVENHGEDYKAMARDEKNYYQDTPKQIRSKINVYKRFYPAEWQDFLDSLQKRKMEVE [NOP16] | -1.15 | 57.3 | 54.2 | 1.22 | -0.631 | -6.32
MTLDMDAVLSDFVRSTGAEPGLARDLLEGKNWDVNAALSDFEQLRQVHAGNLPPSFSEGSGGSRTPEKGFSDREPTRPPRPILQRQDDIVQEKRLSRGISHASSSIVSLARSHVSSNGGGGGSNEHPLEMPICAFQLPDLTVYNEDFRSFIERDLIEQSMLVALEQAGRLNWWVSVDPTSQRLLPLATTGDGNCLLHAASLGMWGFHDRDLMLRKALYALMEKGVEKEALKRRWRWQQTQQNKESGLVYTEDEWQKEWNELIKLASSEPRMHLGTNGANCGGVESSEEPVYESLEEFHVFVLAHVLRRPIVVVADTMLRDSGGEAFAPIPFGGIYLPLEVPASQCHRSPLVLAYDQAHFSALVSMEQKENTKEQAVIPLTDSEYKLLPLHFAVDPGKGWEWGKDDSDNVRLASVILSLEVKLHLLHSYMNVKWIPLSSDAQAPLAQPESPTASAGDEPRSTPESGDSDKESVGSSSTSNEGGRRKEKSKRDREKDKKRADSVANKLGSFGKTLGSKLKKNMGGLMHSKGSKPGGVGTGLGGSSGTETLEKKKKNSLKSWKGGKEEAAGDGPVSEKPPAESVGNGGSKYSQEVMQSLSILRTAMQGEGKFIFVGTLKMGHRHQYQEEMIQRYLSDAEERFLAEQKQKEAERKIMNGGIGGGPPPAKKPEPDAREEQPTGPPAESRAMAFSTGYPGDFTIPRPSGGGVHCQEPRRQLAGGPCVGGLPPYATFPRQCPPGRPYPHQDSIPSLEPGSHSKDGLHRGALLPPPYRVADSYSNGYREPPEPDGWAGGLRGLPPTQTKCKQPNCSFYGHPETNNFCSCCYREELRRREREPDGELLVHRF [OTUD7B] | 0.376 | 50.8 | 50.9 | -0.0993 | 0.347 | 0.243
NCOA3 | 0.355 | 51.2 | 49.8 | -0.0688 | 0.836 | 1.22
EMC10 | 0.514 | 52.2 | 54.1 | -0.339 | 1.37 | 0.155
MFVELNNLLNTTPDRAEQGKLTLLCDAKTDGSFLVHHFLSFYLKANCKVCFVALIQSFSHYSIVGQKLGVSLTMARERGQLVFLEGLKSAVDVVFQAQKEPHPLQFLREANAGNLKPLFEFVREALKPVDSGEARWTYPVLLVDDLSVLLSLGMGAVAVLDFIHYCRATVCWELKGNMVVLVHDSGDAEDEENDILLNGLSHQSHLILRAEGLATGFCRDVHGQLRILWRRPSQPAVHRDQSFTYQYKIQDKSVSFFAKGMSPAVL [ELP6] | -0.082 | 55.1 | 54.4 | -0.245 | -0.431 | -1.3
BOD1L1 | -0.161 | 56 | 56 | 0.0131 | -3.05 | -3.12
MYO5C | -0.665 | 50.9 | – | 0.291 | 0.384 | 1.14
MEFSGRKWRKLRLAGDQRNASYPHCLQFYLQPPSENISLIEFENLAIDRVKLLKSVENLGVSYVKGTEQYQSKLESELRKLKFSYRENLEDEYEPRRRDHISHFILRLAYCQSEELRRWFIQQEMDLLRFRFSILPKDKIQDFLKDSQLQFEAISDEEKTLREQEIVASSPSLSGLKLGFESIYKIPFADALDLFRGRKVYLEDGFAYVPLKDIVAIILNEFRAKLSKALALTARSLPAVQSDERLQPLLNHLSHSYTGQDYSTQGNVGKISLDQIDLLSTKSFPPCMRQLHKALRENHHLRHGGRMQYGLFLKGIGLTLEQALQFWKQEFIKGKMDPDKFDKGYSYNIRHSFGKEGKRTDYTPFSCLKIILSNPPSQGDYHGCPFRHSDPELLKQKLQSYKISPGGISQILDLVKGTHYQVACQKYFEMIHNVDDCGFSLNHPNQFFCESQRILNGGKDIKKEPIQPETPQPKPSVQKTKDASSALASLNSSLEMDMEGLEDYFSEDS [PRIM2] | 0.23 | 48.9 | 49 | -0.116 | 0.648 | 2.05
